Source: patent US20210206873A1

Assays:
[1] = target: human Toll-like Receptor 9 (TLR9) (human) (UniProt Q9NR96); assay: intracellular flow, pDCs; PE isotype control, no block
[2] = target: human Toll-like Receptor 9 (TLR9) (human) (UniProt Q9NR96); assay: intracellular flow, B cells; PE isotype control, no block

UniProt Q9NR96, sequence (Q9NR96 26-1032): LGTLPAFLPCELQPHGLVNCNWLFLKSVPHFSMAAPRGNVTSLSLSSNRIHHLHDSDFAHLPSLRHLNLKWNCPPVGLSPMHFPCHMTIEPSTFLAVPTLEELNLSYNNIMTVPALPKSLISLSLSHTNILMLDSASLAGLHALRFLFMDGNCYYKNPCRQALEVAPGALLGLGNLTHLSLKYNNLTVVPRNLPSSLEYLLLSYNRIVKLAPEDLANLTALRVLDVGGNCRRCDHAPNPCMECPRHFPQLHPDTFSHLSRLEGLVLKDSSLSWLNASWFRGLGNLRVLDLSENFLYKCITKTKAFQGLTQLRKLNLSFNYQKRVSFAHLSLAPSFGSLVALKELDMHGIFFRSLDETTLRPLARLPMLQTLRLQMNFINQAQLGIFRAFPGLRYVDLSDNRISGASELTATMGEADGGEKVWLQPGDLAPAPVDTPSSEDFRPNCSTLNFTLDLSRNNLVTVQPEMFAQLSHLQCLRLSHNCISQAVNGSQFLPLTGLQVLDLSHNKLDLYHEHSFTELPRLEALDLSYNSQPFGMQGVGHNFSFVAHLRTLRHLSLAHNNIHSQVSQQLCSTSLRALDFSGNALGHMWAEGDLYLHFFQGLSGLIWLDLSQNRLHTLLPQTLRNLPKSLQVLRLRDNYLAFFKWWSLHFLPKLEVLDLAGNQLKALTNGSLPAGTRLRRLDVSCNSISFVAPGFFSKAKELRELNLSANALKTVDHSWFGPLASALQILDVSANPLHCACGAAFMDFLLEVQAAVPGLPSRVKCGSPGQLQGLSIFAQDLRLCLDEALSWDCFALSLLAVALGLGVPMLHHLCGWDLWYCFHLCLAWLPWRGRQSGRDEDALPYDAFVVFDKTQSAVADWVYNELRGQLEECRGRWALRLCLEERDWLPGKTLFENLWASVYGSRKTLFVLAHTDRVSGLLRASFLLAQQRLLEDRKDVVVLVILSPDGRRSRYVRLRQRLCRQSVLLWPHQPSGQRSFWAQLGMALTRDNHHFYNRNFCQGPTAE

In the case of Rat IgG2a isotype control (antibody), the MFI [1] is reported as 490 and the MFI [2] is reported as 142.
For Rat IgG2b isotype control (antibody), the MFI [1] was 138 and the MFI [2] was 52.
